The stoichiometry N is a count of units in the complex or per binding partner.

The values that follow come from PMC2132943.

The target in this assay is CCR5 chemokine receptor (human) (UniProt P51681). Description: cross-linking.

Chain of CCR5 chemokine receptor, P51681 1-352 (receptor; other documents disagree on this pair) (P51681 whole entry): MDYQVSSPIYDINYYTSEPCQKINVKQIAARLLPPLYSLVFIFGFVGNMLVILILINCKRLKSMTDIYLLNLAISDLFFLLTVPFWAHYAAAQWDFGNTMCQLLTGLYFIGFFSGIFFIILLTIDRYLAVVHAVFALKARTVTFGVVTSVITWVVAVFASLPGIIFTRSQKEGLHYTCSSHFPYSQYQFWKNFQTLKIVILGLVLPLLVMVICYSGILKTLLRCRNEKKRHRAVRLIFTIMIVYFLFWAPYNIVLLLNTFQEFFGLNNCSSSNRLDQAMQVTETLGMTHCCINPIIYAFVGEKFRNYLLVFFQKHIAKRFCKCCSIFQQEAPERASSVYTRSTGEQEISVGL

As to “CCR5 chemokine receptor, P51681 1-352 (receptor; other documents disagree on this pair)”, the stoichiometry N is 2.
